For the experiment, the target named is T1, 重组人NT-proBNP (recombinant human N-terminal pro-brain natriuretic peptide, bought from 重庆探生科技有限公司) (human, UniProt P16860 27-102).
T1 construct: also called NT-proBNP校准品; 人脑钠肽原N端肽
T1 sequence (looked up): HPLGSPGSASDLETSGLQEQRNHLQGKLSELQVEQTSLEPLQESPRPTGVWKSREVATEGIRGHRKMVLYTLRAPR
Briefly: phage ELISA, NT-proBNP coated, HRP anti-phage antibody, A450. For orientation: In an ELISA, binding on a coated surface is turned into a signal by an enzyme label.

B1: 人NT-proBNP特异性羊单链抗体scFv, displayed on phage (clone of the third round of panning) (scFv)
scFv: MALSQVRLQESGPSLVKPSQTLSLTCTVSGPSLTDYDVDWVRQAPGKALEWLGFINQGAPTGYDPALKSRLSITRDTSKSQVSLSLSSMTAEDTAVYYCARGAILGWGRGLLVTVSSQGSTSGSGKPGSGEGSTKGGQAVLTQPASVSGSPGQTVTISCTGTSGDIAGYNLVGWYQQLPNSAPKTLIYDVSTRRSGIPARFSGSKSGNTATLTISGLQAEDEADYYCSTSISANSVGFGSGTRLTVLGQPKSAPS
notes: The phage coat fusion partner is not described; also called 单克隆噬菌体
Regarding B1, the binding result is reported as “binds”.

Values taken from CN109678958A (CHONGQING BIOMEAN TECH CO LTD, dated 2019).
